The results in this text go back to patent US20070014785A1.

In this experiment the target is human CD20 (entire coding sequence, expressed on the cell surface after LTR-CD20-LTR retroviral transduction) (human) (UniProt P11836). The experiment can be described thus: cell-based or functional assay.
Chain of UniProt P11836 (P11836 whole entry): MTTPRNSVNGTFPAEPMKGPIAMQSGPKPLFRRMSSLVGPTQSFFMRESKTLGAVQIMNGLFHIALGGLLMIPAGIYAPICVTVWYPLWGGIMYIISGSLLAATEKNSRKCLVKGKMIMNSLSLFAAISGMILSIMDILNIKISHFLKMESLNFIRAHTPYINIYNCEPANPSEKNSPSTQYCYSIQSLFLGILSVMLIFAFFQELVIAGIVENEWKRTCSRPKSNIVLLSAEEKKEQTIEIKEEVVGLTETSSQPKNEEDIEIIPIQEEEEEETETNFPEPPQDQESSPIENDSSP

Turning to “Rituximab (Roche), humanised monoclonal antibody against CD20”, the % specific lysis, Rituximab alone (Donor 1, 30% CD3/CD20+ lymphocytes) was 0%; the % specific lysis, Rituximab alone (Donor 2, 23% CD3/CD20+ lymphocytes) turned out to be 0%; the % specific lysis, Rituximab alone (Donor 3, 15% CD3/CD20+ lymphocytes) was 0%; the % specific lysis, Rituximab plus complement (Donor 1, 30% CD3/CD20+ lymphocytes) worked out at 33%. The % specific lysis, Rituximab plus complement (Donor 2, 23% CD3/CD20+ lymphocytes) was 35%; the % specific lysis, Rituximab plus complement (Donor 3, 15% CD3/CD20+ lymphocytes) was determined as 18%; the death of the CD3/CD20+ cells after one hour exposure (complement-dependent cytotoxicity) is 90%.
